The chains are these.
B1: KCNK9 (parent)
chain: DVPDLQSVCSCTCYRSQDYGGRSV
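Further: lentivirally expressed fusions sorted by FACS into six bins by GFP to DsRed ratio, PSI derived from sequencing read proportions per bin multiplied by bin number.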

This series covers variants of B1. Put plainly: protein stability index of a GFP-peptide fusion (GPS, HEK-293T) (PSI 1-6); higher = more stable. As to conditions: c terminus: a fixed tail appended.
For DVPDLQSWCSCTCYRSQDYGGRSV, the protein stability index came to 1.29.
Consider DVPDLQSYCSCTCYRSQDYGGRSV, for which the protein stability index was determined as 1.86.
Consider DVPDLQSLCSCTCYRSQDYGGRSV, for which the protein stability index worked out at 1.59.
Under DVPDLQSECSCTCYRSQDYGGRSV stands 2.24.
For DVPDLQSKCSCTCYRSQDYGGRSV, the protein stability index is 1.68.
The value for DVPDLQSNCSCTCYRSQDYGGRSV was 2.5.
For the variant DVPDLQSRCSCTCYRSQDYGGRSV, the protein stability index stood at 2.29.
DVPDLQSFCSCTCYRSQDYGGRSV: the protein stability index was 2.22.
Under DVPDLQSSCSCTCYRSQDYGGRSV stands 2.06.
Turning to DVPDLQSMCSCTCYRSQDYGGRSV, the protein stability index worked out at 1.06.
Under DVPDLQSTCSCTCYRSQDYGGRSV stands 1.72.
Regarding DVPDLQSHCSCTCYRSQDYGGRSV, the protein stability index came to 1.57.
As for DVPDLQSPCSCTCYRSQDYGGRSV, the protein stability index was found to be 1.77.
For DVPDLQSDCSCTCYRSQDYGGRSV, the protein stability index amounted to 2.8.
DVPDLQSICSCTCYRSQDYGGRSV: the protein stability index amounted to 2.
Under DVPDLQSGCSCTCYRSQDYGGRSV stands 3.36.
Take DVPDLQSQCSCTCYRSQDYGGRSV: the protein stability index was 2.42.
As for DVPDLQSACSCTCYRSQDYGGRSV, the protein stability index was 2.8.
Regarding DVPDLQSVCSCTCYCSQDYGGRSV, the protein stability index amounted to 2.17.
As to DVPDLQSVCSCTCYSSQDYGGRSV, the protein stability index came out at 2.48.
As to DVPDLQSVCSCTCYTSQDYGGRSV, the protein stability index was found to be 2.2.
With DVPDLQSVCSCTCYFSQDYGGRSV, the protein stability index was determined as 1.78.
For the variant DVPDLQSVCSCTCYWSQDYGGRSV, the protein stability index was 2.21.
Consider DVPDLQSVCSCTCYVSQDYGGRSV, for which the protein stability index was determined as 1.28.
Take DVPDLQSVCSCTCYPSQDYGGRSV: the protein stability index was 2.05.
For the variant DVPDLQSVCSCTCYQSQDYGGRSV, the protein stability index turned out to be 1.68.
The value for DVPDLQSVCSCTCYKSQDYGGRSV was 2.08; that for DVPDLQSVCSCTCYDSQDYGGRSV was 3.58; that for DVPDLQSVCSCTCYYSQDYGGRSV was 1.98.
As to DVPDLQSVCSCTCYGSQDYGGRSV, the protein stability index stood at 2.23.
Take DVPDLQSVCSCTCYHSQDYGGRSV: the protein stability index was 2.68.
As for DVPDLQSVCSCTCYESQDYGGRSV, the protein stability index turned out to be 2.52.
The value for DVPDLQSVCSCTCYASQDYGGRSV was 2.07; that for DVPDLQSVCSCTCYLSQDYGGRSV was 1.49.
Regarding DVPDLQSVCSCTCYRSRDYGGRSV, the protein stability index is 2.58.
Regarding DVPDLQSVCSCTCYRSCDYGGRSV, the protein stability index was 2.31.
On to DVPDLQSVCSCTCYRSDDYGGRSV, for which the protein stability index was 2.15.
Under DVPDLQSVCSCTCYRSNDYGGRSV stands 1.51.
Consider DVPDLQSVCSCTCYRSLDYGGRSV, for which the protein stability index is 3.13.
On to DVPDLQSVCSCTCYRSKDYGGRSV, for which the protein stability index stood at 1.86.
The value for DVPDLQSVCSCTCYRSIDYGGRSV was 1.87; that for DVPDLQSVCSCTCYRSTDYGGRSV was 2.39.
In the case of DVPDLQSVCSCTCYRSFDYGGRSV, the protein stability index came to 1.95.
For DVPDLQSVCSCTCYRSSDYGGRSV, the protein stability index came out at 2.41.
DVPDLQSVCSCTCYRSADYGGRSV: the protein stability index was found to be 1.56.
In the case of DVPDLQSVCSCTCYRSHDYGGRSV, the protein stability index was 2.14.
Under DVPDLQSVCSCTCYRSPDYGGRSV stands 1.27.
As to DVPDLQSVCSCTCYRSGDYGGRSV, the protein stability index came out at 2.21.
With DVPDLQSVCSCTCYRSEDYGGRSV, the protein stability index was 2.07.
For DVPDLQSVCSCTCYRSMDYGGRSV, the protein stability index is 2.76.
DVPDLQSVCPCTCYRSQDYGGRSV: the protein stability index turned out to be 1.52.
The value for DVPDLQSVCQCTCYRSQDYGGRSV was 2.25.
Take DVPDLQSVCTCTCYRSQDYGGRSV: the protein stability index was determined as 2.47.
For DVPDLQSVCRCTCYRSQDYGGRSV, the protein stability index amounted to 1.33.
DVPDLQSVCYCTCYRSQDYGGRSV: the protein stability index turned out to be 1.92.
On to DVPDLQSVCNCTCYRSQDYGGRSV, for which the protein stability index came out at 1.47.
On to DVPDLQSVCFCTCYRSQDYGGRSV, for which the protein stability index was determined as 1.26.
On to DVPDLQSVCECTCYRSQDYGGRSV, for which the protein stability index came out at 2.16.
Regarding DVPDLQSVCLCTCYRSQDYGGRSV, the protein stability index came out at 2.39.
For the variant DVPDLQSVCKCTCYRSQDYGGRSV, the protein stability index was 1.76.
Under DVPDLQSVCDCTCYRSQDYGGRSV stands 2.79; under DVPDLQSVCACTCYRSQDYGGRSV, 1.66; under DVPDLQSVCHCTCYRSQDYGGRSV, 1.43.
Consider DVPDLQSVCSCTCYRAQDYGGRSV, for which the protein stability index was 1.2.
Under DVPDLQSVCSCTCYREQDYGGRSV stands 1.79; under DVPDLQSVCSCTCYRHQDYGGRSV, 1.8; under DVPDLQSVCSCTCYRFQDYGGRSV, 2.78.
Turning to DVPDLQSVCSCTCYRLQDYGGRSV, the protein stability index was found to be 2.87.
The value for DVPDLQSVCSCTCYRMQDYGGRSV was 2.21; that for DVPDLQSVCSCTCYRDQDYGGRSV was 1.85.
As for DVPDLQSVCSCTCYRCQDYGGRSV, the protein stability index is 2.5.
For DVPDLQSVCSCTCYRKQDYGGRSV, the protein stability index was 2.08.
Under DVPDLQSVCSCTCYRGQDYGGRSV stands 1.07; under DVPDLQSVCSCTCYRYQDYGGRSV, 2.31; under DVPDLQSVCSCTCYRIQDYGGRSV, 2.85.
The value for DVPDLQSVCSCTCYRRQDYGGRSV was 1.65.
DVPDLQSVCSCTCYRVQDYGGRSV: the protein stability index came out at 1.03.
Turning to DVPDLQSVCSCTCYRPQDYGGRSV, the protein stability index was 3.56.
DVPDLQSVCSCTCYRTQDYGGRSV: the protein stability index came out at 2.18.
For DVPDLQSVCSCTCYRNQDYGGRSV, the protein stability index worked out at 2.1.
Regarding DVPDLQRVCSCTCYRSQDYGGRSV, the protein stability index is 1.57.
Turning to DVPDLQYVCSCTCYRSQDYGGRSV, the protein stability index was 2.07.
Under DVPDLQCVCSCTCYRSQDYGGRSV stands 1.66; under DVPDLQDVCSCTCYRSQDYGGRSV, 2.2.
As for DVPDLQNVCSCTCYRSQDYGGRSV, the protein stability index was found to be 1.38.
For DVPDLQAVCSCTCYRSQDYGGRSV, the protein stability index worked out at 1.64.
The value for DVPDLQVVCSCTCYRSQDYGGRSV was 1.56; that for DVPDLQPVCSCTCYRSQDYGGRSV was 1.46; that for DVPDLQGVCSCTCYRSQDYGGRSV was 1.81.
DVPDLQKVCSCTCYRSQDYGGRSV: the protein stability index turned out to be 1.96.
Consider DVPDLQEVCSCTCYRSQDYGGRSV, for which the protein stability index stood at 1.81.
Under DVPDLQWVCSCTCYRSQDYGGRSV stands 2.48; under DVPDLQQVCSCTCYRSQDYGGRSV, 2.29; under DVPDLQTVCSCTCYRSQDYGGRSV, 2.03.

The values are drawn from the supplement of paper PMC10567573.
